Test results: US8399213B2, “Method for monitoring intracellular tyrosine phosphatase activity” (University of Southern California, priority 2008, dated 2013)
Square brackets hold non-standard residues; d marks the D form. Ends that are not written are not given here. Ala(7-OPO3H2-coumarin-4-yl) = N[C@@H](Cc1cc(=O)oc2cc(OP(=O)(O)O)ccc12)C(=O)O

Assays:
[1] = tested on: intracellular PTPs in JTAg cells; test: Intracellular dephosphorylation of nucleofected pCAP peptide, flow cytometry; format: cell-based, human; details: preincubated with 10 mM vanadate; 100 μM 9LckpCAP394 peptide; 1′ after nucleofection
Experimental: FIG. 3. Dephosphorylation of pCAP peptide by intracellular PTPs after nucleofection. (A) Time-course of intracellular dephosphorylation of nucleofected 9Lck394 CAP-based peptides. JTAg human T cells were nucleofected in the presence of 100 μM pCAP peptide (blue lines), 100 μM CAP peptide (red lines) or 100 μM of a non-hydrolyzable Et2pCAP peptide (green lines). Cell fluorescence was measured using a BD LSR-II with a DAPI filter at 30″ (dotted lines) and 1′ (continuous lines). […] (B) Fluorescence of non-nucleofected JTAg cells incubated in the presence of the CAP-based peptides used for the experiment in panel (A). Graphs show fluorescence of non-nucleofected cells incubated with 100 μM pCAP peptide (dashed blue line), 100 μM CAP peptide (dashed red line) or 100 μM of a non-hydrolyzable Et2pCAP peptide (dashed green line). Data from panel (A) and (B) are representative of the same experiment. […] JTAg cells were nucleofected in the presence of 100 μM 9LckpCAP394 peptide and cell fluorescence was measured at 1′ (pink line), 2.5′ (purple line), 5′ (light blue line), and 10′ (dark blue line). […]
FIG. 4. […] Dashed red and blue lines show fluorescence of non-nucleofected cells incubated with pCAP peptide (blue dashed line) or CAP peptide (red dashed line), and vanadate.
FIG. 5. […] The fluorescence of cells was assessed at 1′ (black lines) or 15′ (yellow lines) after fixation. […]

[2] = tested on: Jurkat TAg (JTAg) cells; test: Cellular uptake of cell-permeable CAP peptides, flow cytometry; format: cell-based; details: JTAg T cells treated with lipid-R7 peptides
Experimental: FIG. 6. […] Cells were incubated for 1 hour with RPMI with 0.5% FBS with DMSO alone or containing 12.5 μM of Ant-CAP or R8-CAP. The fluorescence (Y axis) versus forward scatter (X axis) of 10,000 cells gated as live T cells on the forward versus side scatter plot is shown. The percentage (%) of positive (showing fluorescence over the control level) cells is shown in each panel.
The inventors have shown that pCAP peptides are dephosphorylated by PTPs, but are not recognized by serine/threonine phosphatases, which makes them particularly suitable as probes to detect intracellular PTP activity (FIG. 1). […] The amount of enzyme used was normalized to be the same activity on DiFMUP. […] To determine if these peptides are suitable substrates for cell-based screening of PTP inhibitors, the inventors further assessed dephosphorylation in microinjected cells. Using fluorescence microscopy, intracellular dephosphorylation of the microinjected peptides was observed as recognized by an increase in fluorescence over time and was inhibited by a known PTP inhibitor (FIG. 2). […] Human Jurkat TAg (JTAg) cells with CAP-ANT and CAP-R8 peptides were incubated and analyzed by flow cytometry. […]
Cells are added to wells of a plate at a concentration of up to 10 million/mL. […] Cells can be analyzed with any flow cytometry system equipped with appropriate excitation and emission filters.

[3] = biological target: YOP (Yersinia enterocolitica, UniProt P15273); details: excitation at 340 nm and emission at 460 nm; cited from earlier work
YOP, sequence (P15273 whole entry): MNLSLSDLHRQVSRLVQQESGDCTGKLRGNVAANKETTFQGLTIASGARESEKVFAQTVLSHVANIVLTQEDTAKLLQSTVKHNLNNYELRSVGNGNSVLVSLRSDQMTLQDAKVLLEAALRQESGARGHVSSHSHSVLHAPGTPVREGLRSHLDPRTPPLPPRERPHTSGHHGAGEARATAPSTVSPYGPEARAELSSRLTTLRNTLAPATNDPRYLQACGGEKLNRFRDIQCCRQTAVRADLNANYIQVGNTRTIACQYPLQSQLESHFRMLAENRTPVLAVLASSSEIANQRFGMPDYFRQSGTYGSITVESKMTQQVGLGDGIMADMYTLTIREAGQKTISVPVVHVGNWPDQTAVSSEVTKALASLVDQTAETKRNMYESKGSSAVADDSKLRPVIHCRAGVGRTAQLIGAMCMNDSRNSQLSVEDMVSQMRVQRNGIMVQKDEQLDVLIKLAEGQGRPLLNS

[4] = biological target: T1, T cell PTP (TCPTP) (Homo sapiens, UniProt P17706); details: cited from earlier work
T1 sequence (P17706 1-415): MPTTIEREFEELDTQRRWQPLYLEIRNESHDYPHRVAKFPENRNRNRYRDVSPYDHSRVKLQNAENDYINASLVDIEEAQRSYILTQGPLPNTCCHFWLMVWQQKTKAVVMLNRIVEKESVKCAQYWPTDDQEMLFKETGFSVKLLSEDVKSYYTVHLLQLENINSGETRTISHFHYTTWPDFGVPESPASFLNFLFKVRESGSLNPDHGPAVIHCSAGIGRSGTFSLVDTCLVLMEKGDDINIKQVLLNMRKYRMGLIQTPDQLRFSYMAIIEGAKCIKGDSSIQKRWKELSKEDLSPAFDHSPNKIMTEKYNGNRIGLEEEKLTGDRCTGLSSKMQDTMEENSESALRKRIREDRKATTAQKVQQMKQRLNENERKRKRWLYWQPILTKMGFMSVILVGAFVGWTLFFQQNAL

[5] = biological target: T2, PTPN22 (Homo sapiens, UniProt Q9Y2R2); test: Dephosphorylation of pCAP peptide by PTPN22; format: biochemical
T2 sequence (Q9Y2R2 1-807): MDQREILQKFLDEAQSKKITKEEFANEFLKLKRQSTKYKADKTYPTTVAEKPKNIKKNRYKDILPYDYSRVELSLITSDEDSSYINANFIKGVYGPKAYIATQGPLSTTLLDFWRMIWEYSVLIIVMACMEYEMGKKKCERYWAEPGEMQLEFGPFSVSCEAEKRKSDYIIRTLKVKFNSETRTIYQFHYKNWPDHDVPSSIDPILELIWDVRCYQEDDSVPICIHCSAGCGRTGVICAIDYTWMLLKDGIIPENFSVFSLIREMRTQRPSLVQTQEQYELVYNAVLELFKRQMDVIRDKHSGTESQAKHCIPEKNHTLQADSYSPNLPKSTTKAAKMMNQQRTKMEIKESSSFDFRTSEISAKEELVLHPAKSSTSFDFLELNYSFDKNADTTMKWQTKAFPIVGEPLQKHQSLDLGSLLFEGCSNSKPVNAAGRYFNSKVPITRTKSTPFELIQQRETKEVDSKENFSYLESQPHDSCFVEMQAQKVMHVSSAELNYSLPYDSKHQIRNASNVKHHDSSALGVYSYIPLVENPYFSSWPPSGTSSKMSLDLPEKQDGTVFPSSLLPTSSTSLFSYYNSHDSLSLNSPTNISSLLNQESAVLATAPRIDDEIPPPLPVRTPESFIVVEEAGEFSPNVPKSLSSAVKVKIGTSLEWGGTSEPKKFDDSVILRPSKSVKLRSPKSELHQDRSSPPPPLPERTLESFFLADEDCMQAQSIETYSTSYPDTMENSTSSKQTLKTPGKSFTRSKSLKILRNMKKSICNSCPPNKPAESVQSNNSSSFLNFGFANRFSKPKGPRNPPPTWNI
Experimental: (§1) (A) Structure of CAP, pCAP, and Et2-pCAP, a non-hydrolyzable form of pCAP. (B) Kinetic parameters of dephosphorylation of 9LckpCAP394 peptide by PTPN22. (C) Time-course of dephosphorylation of 0.2 mM 9LckpCAP394 peptide by PP1 (filled triangles), PP2A (open squares), or PP2B (filled squares). Linear regression is also shown. The activity of the enzymes was normalized using difluoromethylumbelliferone phosphate (DiFMUP) as substrate and equal units were used for all the assays on pCAP peptide. Open diamonds and dashed line show representative activity of all enzymes on 0.2 mM DiFMUP.
(§2) The amount of enzyme used was normalized to be the same activity on DiFMUP. […] To determine if these peptides are suitable substrates for cell-based screening of PTP inhibitors, the inventors further assessed dephosphorylation in microinjected cells. […] In principle, any FACS system equipped with the appropriate excitation and emission filters could be used. […] Human Jurkat TAg (JTAg) cells with CAP-ANT and CAP-R8 peptides were incubated and analyzed by flow cytometry.

[6] = tested on: serine-threonine phosphatases (PP1, PP2A, PP2B); test: Dephosphorylation of pCAP peptide by serine-threonine phosphatases, plate reader time-course; format: biochemical; details: 0.2 mM peptide; optimal buffer for each enzyme; enzyme amount normalized to same activity on DiFMUP
Experimental: as §1, §2

[7] = tested on: T3, 9LckpCAP394 peptide (EDNE-pCAP-TARE)
T3 sequence: EDNEXTARE

[8] = biological target: T4, 9LckpCAP394 peptide (EDNE-pCAP-TARE)
T4 chain: EDNEXTARE

In the case of `[O]=[V]([O-])([O-])[O-]` [Vanadate, vanadate], the “inhibition of dephosphorylation of pCAP peptide in nucleofected JTAg cells” value [1] is reported as “inhibits the dephosphorylation”.

In the case of C14-betaAla-R7-CAP, the “efficacy of internalization compared to non-lipidic tags” value [2] is reported as “substantially increase efficacy of internalization”.

In the case of C16-betaAla-R7-CAP, the “efficacy of internalization compared to non-lipidic tags” value [2] is reported as “substantially increase efficacy of internalization”.

In the case of “DADE-pCAP-GPAA-NH2 (DADEXGPAX; pCAP residue, C-terminal amide; artificial YOP substrate) [peptide 1, pCAP-containing peptide, artificial YOP substrate]”, the “fluorescence change on dephosphorylation by YOP” value [3] is given as “linear increase in fluorescence” and the “turnover by human PTPs including TCPTP” value [4] is given as “efficiently turned over”.

With “EDNE-pCAP-TARE (EDNE[Ala(7-OPO3H2-coumarin-4-yl)]TARE) [9Lck394p CAP, pCAP peptide, artificial PTPN22 substrate]” the “hydrolysis by PTPN22” value [5] was “efficiently hydrolyzed” and the “hydrolysis by serine-threonine phosphatases” value [6] was “ineffective at hydrolysis”.

With PP1 the “hydrolysis (dephosphorylation) of 0.2 mM pCAP peptide over time, fluorescence excitation 340 nm / emission 460 nm” value [7] was “The serine-threonine phosphatases were ineffective at hydrolysis of this peptide”.

For PP2A, the “hydrolysis (dephosphorylation) of 0.2 mM pCAP peptide over time, fluorescence excitation 340 nm / emission 460 nm” value [7] was “The serine-threonine phosphatases were ineffective at hydrolysis of this peptide”.

For PP2B, the “hydrolysis (dephosphorylation) of 0.2 mM pCAP peptide over time, fluorescence excitation 340 nm / emission 460 nm” value [7] was “The serine-threonine phosphatases were ineffective at hydrolysis of this peptide”.

B1: PTPN22 (protein)
chain: MDQREILQKFLDEAQSKKITKEEFANEFLKLKRQSTKYKADKTYPTTVAEKPKNIKKNRYKDILPYDYSRVELSLITSDEDSSYINANFIKGVYGPKAYIATQGPLSTTLLDFWRMIWEYSVLIIVMACMEYEMGKKKCERYWAEPGEMQLEFGPFSVSCEAEKRKSDYIIRTLKVKFNSETRTIYQFHYKNWPDHDVPSSIDPILELIWDVRCYQEDDSVPICIHCSAGCGRTGVICAIDYTWMLLKDGIIPENFSVFSLIREMRTQRPSLVQTQEQYELVYNAVLELFKRQM
For B1, the “hydrolysis (dephosphorylation) of pCAP peptide, fluorescence excitation 340 nm / emission 460 nm” value [8] was “efficiently hydrolyzed by PTPN22”.
